From patent US20220259278A1 (PROGEN, published 2022) come the findings set out here.

The target of assay [1] is T1, human CD154 (human, UniProt P29965 113-261, limits assumed).
T1 construct: Coupled to amine reactive (AR2G) biosensors at 5 ug/ml; also called hCD154; CD40L
T1 sequence (looked up): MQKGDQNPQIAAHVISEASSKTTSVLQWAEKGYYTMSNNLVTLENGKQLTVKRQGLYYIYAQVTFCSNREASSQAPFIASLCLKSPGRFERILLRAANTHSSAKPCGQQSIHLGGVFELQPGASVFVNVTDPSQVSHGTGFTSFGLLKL
The experiment in a line: BLI (Octet K2), CD154 amine-coupled to AR2G sensor, antibody in solution; average. As to the method: To this end, the present inventors first attached CD154 protein to 96-well plates using Dip and Read™ Amine Reactive 2nd Generation (AR2G) Reagent Kit (forteBio, Cat No. 18-5092). Specifically, after dispensing 200 μl of DW in a 96-well plate, an amine biosensor included in the kit was inserted and hydrated for 10 minutes. Subsequently, after dispensing 200 μl of DW was additionally to the plate, EDC:NHS was mixed in a 1:1 ratio in a volume corresponding to 1/20 of the required sample, then diluted in DW, and 200 μl was dispensed into the 96-well plate. Subsequently, CD154 protein was diluted to 5 μg/ml in 10 mM acetate solution (pH 6.0), and 200 μl was dispensed into the 96-well plate. Then, 200 μl of 1 M ethanolamine was added to the 96-well plate, and the biosensor plate and the sample plate were inserted into Octet® K2 BLI analyzer and signals were measured. After the measurement was completed, 200 μl of the 1× Kinetics buffer was added to the sample plate, and then a baseline was determined.

Assay [2] has as its target T2, Fc gamma receptor IIIa (UniProt P08637 17-208).
T2 construct: also called FcγRIIIa
Put plainly: BLI, fitting view, three repeats.

Assay [3] addresses T3, Fc gamma receptor I (UniProt P12314 16-288, limits assumed).
T3 construct: also called FcγRI
Put plainly: BLI, fitting view, three repeats.

T2 sequence (P08637 17-208 limits assumed): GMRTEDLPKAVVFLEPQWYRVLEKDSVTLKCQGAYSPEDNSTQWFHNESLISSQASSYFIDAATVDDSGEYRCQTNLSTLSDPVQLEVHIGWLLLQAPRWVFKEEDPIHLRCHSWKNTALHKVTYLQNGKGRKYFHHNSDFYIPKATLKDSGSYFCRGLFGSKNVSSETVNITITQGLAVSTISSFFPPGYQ
T3 sequence (P12314 16-288 limits assumed): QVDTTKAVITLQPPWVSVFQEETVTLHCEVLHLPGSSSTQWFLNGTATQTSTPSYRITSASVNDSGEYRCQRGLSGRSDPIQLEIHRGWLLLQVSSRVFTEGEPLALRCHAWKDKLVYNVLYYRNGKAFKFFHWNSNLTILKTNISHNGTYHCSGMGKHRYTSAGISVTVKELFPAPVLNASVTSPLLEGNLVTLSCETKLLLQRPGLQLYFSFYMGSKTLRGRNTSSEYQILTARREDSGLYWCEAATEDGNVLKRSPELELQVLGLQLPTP

B1: chimeric anti-CD154 antibody C10M (antibody, V domains shown, not shown: a dimerising Fc or GST)
VH: EVQLQQSGSELVKPGASVKLSCKASGYIFTSYYMYWVKQRPGQGLEWIGEINPSNGDTNFNEKFKSKATLTVDKSSSTAYMQLISLTSEDSAVYYCTRSDGRNDMDSWGQGTTVTVSS
VL: DIQLTQSPASLAVSLGQRATISCRASQRVSSSTYSYMHWYQQKPGQPPKLLIKYASNLESGVPARFSGSGSGTDFTLNIHPVEEEDSATYYCQHSWEIPPTFGGGTKLEIKR
notes: Mouse-derived anti-CD154 Fab with a mutant human IgG1 Fc region; also called anti-CD154 chimeric antibody
A word on the koff: it is a measure of how fast the partners let go of each other. A low value points to a long-lived complex. Broadly, the kon is the second-order rate constant of association. Lower therefore signals slower complex formation. Turning to B1, in assay [1], the off-rate (koff) was below 1e-07 s⁻¹ and the kon came to 510000 M⁻¹ s⁻¹.

B2: chimeric hybrid antibody PG-400-1 (antibody, V domains shown)
VH: B1 VH
VL: B1 VL
On to B2, for which, in assay [1], the koff is below 1e-07 s⁻¹ and the kon was found to be 807000 M⁻¹ s⁻¹.

B3: GLP-1E-Fc fusion protein PG-11 (Fc fusion)
chain: HGEGTFTSDVSSYLEGQAAKEFIAWLVKGGPSSGAPPPSGGGGSGGGGSGGGGSEKEKEEQEERTHTCPPCPSHTQPLGVFLFPPKPKDQLMISRTPEVTCVVVDVSQEDPEVQFNWYVDGVEVHNAKTKPREEQFNSTYRVVSVLTVLHQDWLNGKEYKCKVSNKGLPSSIEKTISKAKGQPREPQVYTLPPSQEEMTKNQVSLTCLVKGFYPSDIAVEWESNGQPENNYKTTPPVLDSDGSFFLYSRLTVDKSRWQEGNVFSCSVLHEALHNHYTQKSLSLSLGK
notes: 6 entered; also called modified Fc region protein; fusion protein containing NTIG
Consider B3, for which the binding result in assay [2] and in assay [3] was “no binding” each time.
